Earlier results in patent KR20200047176A, “투라노스의 제조방법” (주식회사 삼양사, priority 2018, dated 2020).

Details: 2 M sucrose substrate

B1: NpAS: amylosucrase from Neisseria polysaccharea, known prior enzyme (protein, UniProt Q9ZEU2 1-636, looked up)
Amylosucrase: MLTPTQQVGLILQYLKTRILDIYTPEQRAGIEKSEDWRQFSRRMDTHFPKLMNELDSVYGNNEALLPMLEMLLAQAWQSYSQRNSSLKDIDIARENNPDWILSNKQVGGVCYVDLFAGDLKGLKDKIPYFQELGLTYLHLMPLFKCPEGKSDGGYAVSSYRDVNPALGTIGDLREVIAALHEAGISAVVDFIFNHTSNEHEWAQRCAAGDPLFDNFYYIFPDRRMPDQYDRTLREIFPDQHPGGFSQLEDGRWVWTTFNSFQWDLNYSNPWVFRAMAGEMLFLANLGVDILRMDAVAFIWKQMGTSCENLPQAHALIRAFNAVMRIAAPAVFFKSEAIVHPDQVVQYIGQDECQIGYNPLQMALLWNTLATREVNLLHQALTYRHNLPEHTAWVNYVRSHDDIGWTFADEDAAYLGISGYDHRQFLNRFFVNRFDGSFARGVPFQYNPSTGDCRVSGTAAALVGLAQDDPHAVDRIKLLYSIALSTGGLPLIYLGDEVGTLNDDDWSQDSNKSDDSRWAHRPRYNEALYAQRNDPSTAAGQIYQGLRHMIAVRQSNPRFDGGRLVTFNTNNKHIIGYIRNNALLAFGNFSEYPQTVTAHTLQAMPFKAHDLIGGKTVSLNQDLTLQPYQVMWLEIA
turanose conversion: 50.9%
